Results published in patent US20260167721A1.

Experiments:
[1] = target: Jurkat TCRb knockout cells; assay: flow cytometry on Jurkat KO (TCRb knockout) cells, negative control, antibody at 1 ug/ml
[2] = target: Jurkat TCRb knockout cells; assay: flow cytometry, Jurkat KO (TCRb knockout) cells, negative control, 10 ug/mL
[3] = target: Jurkat TCRb knockout cells; assay: flow cytometry on Jurkat KO (TCRb knockout) cells, negative control, antibody at 10 ug/ml
[4] = target: Jurkat TCRb knockout cells; assay: flow cytometry, Jurkat KO (TCRb knockout) cells, negative control, 1 ug/mL

B1: Gemtuzumab (antibody, V domains shown)
VH: EVQLVQSGAEVKKPGSSVKVSCKASGYTITDSNIHWVRQAPGQSLEWIGYIYPYNGGTDYNQKFKNRATLTVDNPTNTAYMELSSLRSEDTAFYYCVNGNPWLAYWGQGTLVTVSS
VL: DIQLTQSPSTLSASVGDRVTITCRASESLDNYGIRFLTWFQQKPGKAPKLLMYAASNQGSGVPSRFSGSGSGTEFTLTISSLQPDDFATYYCQQTKEVPWSFGQGTKVEVKR
Work on B1 yielded a flow cytometry signal [1] of 3000, a gMFI [2] of 1830 gMFI and a flow cytometry signal [3] of 2820. It also gave a gMFI [4] of 1860 gMFI.
